In patent publication US20110293610A1 (published 2011):

B1: I079F06 (scFv)
scFv: QVQLVESGGGLVQPGGSLRLSCAASGFTFSSYWMSWVRQAPGKGLEWVANIKQDGSEKYYVDSVKGRFTISRDNAKNSLYLQMNSLRAEDTAVYYCARDNLHAAFDIWGRGTLVTVSGGGGGSGGGGSGGGGSDIQMTQSPSTLSASIGDRVTITCRASEGIYHWLAWYQQKPGKAPKLLIYKASSLASGAPSRFSGSGSGTDFTLTISSLQPDDFATYYCQQYSNYPLTFGGGTKLEIKR
B2: I083B12 (scFv)
scFv: QVQLVQSGAEVKKPGASVKVSCKASEYTFYNHYMHWVRQAPGQGLEWMGFINPSGDAAWYAQKFQGRVTLTRDTSTRTVYMELSGLTSEDTAVYYCARESGAGGYYYDDYWGKGTLVTVSSGGGGSGGGGSGGGGSALSYVLTQPPSVSVAPGKTASIPCGGNNIGSKSVQWYLQKAGQAPILVVYDDSDRPSGIPERFSGSNSGNTATLTITRVEAGDEADYYCQVWDSSSDHWFFGGGTKLTVLG
B3: I080E05 (scFv)
scFv: EVQLVQSGAAVKKPGASVKVSCKASGYTFTTYYIHWVRQAPGQGLEWMGIINPVNGNTIYAQKFQGRVTMTRDTSTGTVNMELSSLRSEDTAVFYCVREGGGDAYDVAPYYFDYWGQGTLVTVSSGGGGSGGGGSGGGGSAQAVLTQPSSVSGAPGQRVTISCTGSSSNIGDGYDVHWYQQLPGTAPKLLIYGNSHRPSGVPDRFSGSKSDTSASLAITGLQVEDEADYFCHSYDSSVSGWIFGGGTKLTVLG
B4: I080G09 (scFv)
scFv: QVQLVQSGAEVKKPGASVRVSCKSSGYTFTNYGISWVRQAPGQGLEWMGWISNNNGKTYYAQKVQGRVTMTTDTSTSTDYMELRGLRSDDTAIYYCARDNGGGTIGFDYWGQGTLVTVSSGGGGSGGGGSGGGGSAQSVLTQPPSVSGAPGQRVTISCTGSSSNIGADYDVHWYQLLPGTAPKLLIYGNTNRPSGVPDRFSGSKSGTSASLTIAGLQAEDEADYYCQSYDSSLSGSVVFGGGTKLTVLG
B5: I080G07 (scFv)
scFv: QVQLVQSGAEVKKPGASVKVSCKASGYTFTSYAMHWVRQAPGQRLEWMGWINAGNGNTKYSQKFQGRVTITRDTSASTAYMELSSLRSEDTAVYYCAREGPGYYYGMDVWGQGTMVTVSSGGGGSGGGGSGGGGSALETTLTQSPGTLSLSPGERATLSCRASQAIGSNYLAWYQQKPGQPPSLLIYGASSRATGIPDRFSASGSGTDFTLTISRLEPEDFAVYYCQQYGSSITFGQGTRLEIKR
B6: I084C04 (scFv)
scFv: VQLVQSGAEVKKPGASVKVSCKASGYTFTSYGISWVRQAPGQGLEWMGWINPNSGGTNYAQKFQGRVTMTRDTSISTAYMELSRLRSDDTAVYYCARNLWGLDYWGKGTMVTVSSGGGGSGGGGSGGGGSSELTQDPAVSVALGQTVRITCQGDSLRSYYASWYQQKPGQAPVLVIYGKNNRPSGIPDRFSGSSSGNTASLTITGAQAEDEADYYCNSRDSSGNHVVFGGGTKLTVLG
B7: I080D03 (scFv)
scFv: QVQLVQSGAELKQPGTSVKVSCKASGYSFSSYGVTWVRQAPGQGLEWMGWVSGNRGNTQYAQKFQDRVRMTTDTSTSTAYMELRSLRPDDTAVYFCARVGIKAAAVDNFEYWGRGTTVTVSSGGGGSGGGGSGGGGSAQSVLTQPPSASGTPGQRVTITCSGSSSNIGDYYVNWYQQVSGTTPKLIIYRDDQRPSGVPDRFSGSKSGASASLAISGLRSEDEANYFCAAWDDSLREFAFGTGTKVTVLG
B8: I083G03 (scFv)
scFv: QVQLVQSGAELKQPGTSVKVSCKASGYSFSSYGVTWVRQAPGQGLEWMGWVSGNRGNTQYAQKFQDRVRMTTDTSTSTAYMELRSLRPDDTDVYFCARVGIKAAAVDNFEYWGRGTTVTVSSGGGGSGGGGSGGGGSAQSVLTQPPSASGTPGQRVTITCSGSSSNIGDYYVNWYQQVSGTTPKLIIYRDDQRPSGVPDRFSGSKSGASASLAISGLRSEDEANYFCAAWDDSLREFAFGTGTKVTVLG
B9: I080A03 (scFv)
scFv: QVQLQQSGAELKQPGTSVKVSCKASGYSFSCYDVNWVRQAPGQGLEWMGRINPNSGNTHYAQKFQDRVTMTTDTSTSTAYMELNSLRPDDTAVYFCARVGIKAAAVDNFEYWGRGTTVTVSSGGGGSGGGGSGGGGSAQSVLTQPPSASGTPGQRVTITCSGSSSNIGDYYVNWYQQVSGTTPKLIIYRDDQRPSGVPDRFSGSKSGASASLAISGLRSEDEANYFCAAWDDSLREFAFGTGTKVTVLG
B10: I079B05 (scFv)
scFv: GVQLVESGGGLVKPGGSLRLSCATSGFRFSDYAMTWVRQAPGKGLEWVSSITGSGGGTHYAGSVRGRFTISRDNSKNTVYLQMNNLRPEDTAVYYCASFVLDYWGKGTLVTVSSGGGGSGGGGSGGGGSQSVLTQPASVSGSPGQSITISCTGTSSDVGGYNYVSWYQQHPGKAPKLMIYEGSKRPSGVSNRFSGSKSGNTASLTISGLQAEDEADYYCSSYTTRSTRVFGGGTKLTVLG
B11: I079B12 (scFv)
scFv: EVQLVQSRGGVVQPGRSLRLSCAASGLTFSSYGMHWVRQAPGKGLEWVAVISYDGRNKYYADSVKGRFTTSRDNSKNTLYLQMNSLRAEDTAVYYCAKWTSSGAFDIWGRGTLVTVSSGGGGSGGGGSGGGGSDIQMTQSPSTLSASIGDRVTITCRASEGIYHWLAWYQQKPGKAPKLLIYKASSLASGAPSRFSGSGSGTDFTLTISSLQPDDFATYYCHQYSNYPLTFGGGTKLEIKR
B12: I082D07 (scFv)
scFv: EVQLVQSRGGVVQPGRSLRLSCAASGLTFSSYGMHWVRQAPGKGLEWVAVISYDGRNKYYADSVKGRFTTSRDNSKNTLYLQMNSLRAEDTAVYYCAKWTSSGAFDIWGRGTLVTVSSGGGGSGGGGSGGGGSDIQMTQSPSTLSASIGDRVTITCRASEGIYHWLAWYQQKPGKAPKLLIYKASSLASGAPSRFSGSGSGTDFTLTISSLQPDDFATYYCQQYSNYPLTFGGGTKLEIKR
B13: I084C11 (scFv)
scFv: GVQLEESGAEVKKPGASVKVSCKASGYTFTGYYMHWVRQAPGQGLEWMGWINPNSGGTNYAQKFQGRVTMTRDTSISTAYMELSRLRSDDTAVYYCARGNAWGAFDIWGRSTLVTVSSGGGGSGGGGSGGGGSQSVLTQPASVSGSPGQSITISCTGTSSDVGGYNYVSWYQQHPGKAPKLMIYEGSKRPSGVSNRFSGSKSGNTASLTVSGLQAEDEADYYCSSYTTRSTRVFGGGTKLTVLG
B14: I080A08 (scFv)
scFv: QVTLKESGGDLVQPGGSLRLSCAASGLTFMSYAMTWVRQAPGKGLEWVSSISGSGDNTYYGDSVRGRFTISRDNSKNTLFLQLNSLRAEDTAFYYCAKVHSTGYAFENWGRGTLVTVSSGGGGSGGGGSGGGGSAQSVLTQPPSVSGAPGQRVTISCTGSSSNIGAGYNVHWYQQLPGTAPRLLISSNTNRPSGVPDRFSGSKSGTSASLAITGLQAEDEADYYCQSYDSSLSGFVFGTGTKVTVLG
B15: I080G07 (scFv)
scFv: QVQLVQSGAEVKKPGASVKVSCKASGYTFTSYAMHWVRQAPGQRLEWMGWINAGNGNTKYSQKFQGRVTITRDTSASTAYMELSSLRSEDTAVYYCAREGPGYYYGMDVWGQGTMVTVSSGGGGSGGGGSGGGGSALETTLTQSPGTLSLSPGERATLSCRASQAIGSNYLAWYQQKPGQPPSLLIYGASSRATGIPDRFSASGSGTDFTLTISRLEPEDFAVYYCQQYGSSITFGQGTRLEIKR

biological target: T1, HIS-tagged B Lymphocyte Stimulator (human, UniProt Q9Y275 71-285); test: BIAcore, periplasmic scFv on high density HIS-BLyS surface
T1 construct: Expressed in E. coli from pQE9 and purified; also called histidine-tagged B Lymphocyte Stimulator; HIS-B Lymphocyte Stimulator; not shown: histidine tag of the pQE9 vector
Method: (§1) All BIAcore analysis was performed on BIAcore 2000 machines, using the BIAcore 2000 control software and evaluated using the BIAevaluation 3.0 software. A high density His-tagged B Lymphocyte Stimulator surface (>1000 RU HIS-B Lymphocyte Stimulator coupled) was prepared in flow cell 2 by amine coupling to a CM5 chip. A new CM5 chip was inserted into the BIAcore and a sensorgram started over flow cell 2 with HBS buffer at a flow rate of 5 μl/min. The NHS and EDC solution were mixed 1:1 before injecting 30 μl over the CM5 surface. Fifty μl HIS-B Lymphocyte Stimulator (at 10 μg/ml in Sodium acetate buffer, pH4) was injected and allowed to couple to the surface. Thirty μl of ethanolamine-HCl solution was then injected to block free NHS esters. Prior to using the chip, 10 μl of 4M Guanidine hydrochloride in HBS was injected over the surface to strip the surface of non-covalently bound B Lymphocyte Stimulator. A blank surface (no HIS-B Lymphocyte Stimulator) was also prepared over flow cell 1 so that non-specific binding effects can be subtracted from the HIS-B Lymphocyte Stimulator binding curves.
(§2) The 96-well plate containing periplasmic scFvs was secured inside the BIAcore. Two ml of 4M Guanidine hydrochloride in HBS was placed in a rack inside the BIAcore for regeneration of the HIS-B Lymphocyte Stimulator surface between samples. The sensorgram was run over flow cells 1 and 2 at a flow rate of […].
T1 sequence (Q9Y275 71-285): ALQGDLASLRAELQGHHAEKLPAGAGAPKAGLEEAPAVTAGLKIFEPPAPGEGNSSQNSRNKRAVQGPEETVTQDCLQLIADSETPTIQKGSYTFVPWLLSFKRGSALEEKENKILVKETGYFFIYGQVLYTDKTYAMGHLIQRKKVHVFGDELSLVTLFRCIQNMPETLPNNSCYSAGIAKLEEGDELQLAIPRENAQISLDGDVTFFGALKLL

Binding result, binds:
B1
B2
B3
B4
B5
B6
B7
B8
B9
B10
B11
B12

biological target: T2, HIS-tagged B Lymphocyte Stimulator (human, UniProt Q9Y275 71-285); test: BIAcore, periplasmic scFv over high density HIS-BLyS surface
T2 construct: Expressed in E. coli; also called HIS-B Lymphocyte Stimulator; histidine-tagged B Lymphocyte Stimulator; not shown: histidine tag from the pQE9 vector
Method: as §1, §2
T2 sequence (Q9Y275 71-285): as above

Binding result, binds:
B13
B14
B15
